Assay results as given in paper PMC3135399.

Target: microtubules (taxol-stabilised, of the MT cosedimentation assay) (bovine) (UniProt Q6B856)
Test: co-sedimentation

Q: Which percent cosedimented with MTs does the source give for “alkaline phosphatase–treated WT CPC, P38283 1-698; P38991 1-367; P47134 1-954; Q3E7Y6 1-73” here?
A: Its percent cosedimented with MTs is 50%.
